Data from patent US20120020948A1, “DAG-TYPE AND INDIRECT PROTEIN KINASE C ACTIVATORS AND ANTICOAGULANT FOR THE TREATMENT OF STROKE” (priority 2010, published 2012).

Test system: rats with focal ischemia (MCAO)
Assay: Mortality after focal ischemia (MCAO) stroke
Assay type: in vivo
Conditions: rTPA i.v. 6 hours after the stroke, with or without bryostatin-1 2 hours later
Description: A transient animal model of focal ischemia was used for these experiments. The middle cerebral artery (MCA) was surgically dissected and occluded in anesthetized rats by ligature, followed by reperfusion after a defined period (about 2 hours). Animal models transient ischemia via occlusion of the MCA (MCAO) are described in, e.g., Sicard and Fisher, Exp. & Transl. Stroke Med. (2009), vol. 1, pp. 1-7.
In contrast, if rTPA was given 6 hours after the stroke, in the absence of subsequent treatment with bryostatin, 44% mortality was observed (N=6 animals).

B1: rTPA: recombinant tissue plasminogen activator, thrombolytic serine protease approved for ischemic stroke (protein, UniProt P00750 36-562, looked up)
Tissue-type plasminogen …: SYQVICRDEKTQMIYQQHQSWLRPVLRSNRVEYCWCNSGRAQCHSVPVKSCSEPRCFNGGTCQQALYFSDFVCQCPEGFAGKCCEIDTRATCYEDQGISYRGTWSTAESGAECTNWNSSALAQKPYSGRRPDAIRLGLGNHNYCRNPDRDSKPWCYVFKAGKYSSEFCSTPACSEGNSDCYFGNGSAYRGTHSLTESGASCLPWNSMILIGKVYTAQNPSAQALGLGKHNYCRNPDGDAKPWCHVLKNRRLTWEYCDVPSCSTCGLRQYSQPQFRIKGGLFADIASHPWQAAIFAKHRRSPGERFLCGGILISSCWILSAAHCFQERFPPHHLTVILGRTYRVVPGEEEQKFEVEKYIVHKEFDDDTYDNDIALLQLKSDSSRCAQESSVVRTVCLPPADLQLPDWTECELSGYGKHEALSPFYSERLKEAHVRLYPSSRCTSQHLLNRTVTDNMLCAGDTRSGGPQANLHDACQGDSGGPLVCLNDGRMTLVGIISWGLGCGQKDVPGVYTKVTNYLDWIRDNMRP
- mortality 24 hours later: 44%
